Assay results published in patent US20240343773A1 (AMIDEBIO, published 2024).
Ends that are not written are not given here.

Target: insulin receptor (IR) (UniProt P06213 28-1382)
Assay: method not stated; in the absence of glucose

Row | Binder | Kd
1 | SEQ ID NO: 5 (ligand, ends and bridges not checked; cysteine pairing not given here, Single chain insulin analog (B chain-C'-A chain)) FVDQHLCGSHLVEALYLVCGERGFFYTPKTYDGKGIVEQCCTSICSLYQLENYCG | 4.51 nM
2 | SEQ ID NO: 7 (ligand, ends and bridges not checked; cysteine pairing not given here, Single chain insulin analog (B chain-C'-A chain)) FVGQHLCGSHLVEALYLVCGERGFFYTPKTYDGKGIVEQCCTSICSLYQLENYCG | 1.21 nM
